Experimental data published in publication PMC10397247.
One block for each binder: values may come before it.

Key:
4H1086-AA = biological target: T1, 4H1086-AA; assay: two-hybrid library CCmax;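 note: natural log of median RNA to DNA barcode read ratio; higher means stronger binding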
T1 chain: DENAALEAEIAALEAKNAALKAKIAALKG

4H1135-AA = biological target: T2, 4H1135-AA; assay: two-hybrid library CCmax; details: mean of both orientations;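 note: natural log of median RNA to DNA barcode read ratio; higher means stronger binding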
T2 chain: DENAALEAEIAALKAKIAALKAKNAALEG

4H1153-AA = biological target: T3, 4H1153-AA; assay: two-hybrid library CCmax; details: mean of both orientations;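 note: natural log of median RNA to DNA barcode read ratio; higher means stronger binding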
T3 chain: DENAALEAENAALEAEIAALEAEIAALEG

4H122-AA = biological target: T4, 4H122-AA; assay: two-hybrid library CCmax; details: mean of both orientations;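 note: natural log of median RNA to DNA barcode read ratio; higher means stronger binding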
T4 chain: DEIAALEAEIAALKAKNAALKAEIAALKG

4H1324-AA = biological target: T5, 4H1324-AA; assay: two-hybrid library CCmax; details: mean of both orientations;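 note: natural log of median RNA to DNA barcode read ratio; higher means stronger binding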
T5 chain: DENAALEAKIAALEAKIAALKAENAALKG

4H1352-AA = biological target: T6, 4H1352-AA; assay: two-hybrid library CCmax; details: mean of both orientations;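 note: natural log of median RNA to DNA barcode read ratio; higher means stronger binding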
T6 chain: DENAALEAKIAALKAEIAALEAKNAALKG

4H1552-AA = biological target: T7, 4H1552-AA; assay: two-hybrid library CCmax; details: mean of both orientations
T7 chain: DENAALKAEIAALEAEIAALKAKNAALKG

4H1636-AA = biological target: T8, 4H1636-AA; assay: two-hybrid library CCmax; details: mean of both orientations
T8 chain: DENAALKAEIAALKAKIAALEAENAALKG

4H1867-AA = biological target: T9, 4H1867-AA; assay: two-hybrid library CCmax; details: mean of both orientations
T9 chain: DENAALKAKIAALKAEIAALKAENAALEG

4H2078-AA = biological target: T10, 4H2078-AA; assay: two-hybrid library CCmax; details: mean of both orientations
T10 chain: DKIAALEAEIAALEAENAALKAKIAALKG

4H2165-AA = biological target: T11, 4H2165-AA; assay: two-hybrid library CCmax; details: mean of both orientations
T11 chain: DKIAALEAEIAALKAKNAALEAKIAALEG

4H2190-AA = biological target: T12, 4H2190-AA; assay: two-hybrid library CCmax; details: mean of both orientations
T12 chain: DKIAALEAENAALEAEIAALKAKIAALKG

4H2277-AA = biological target: T13, 4H2277-AA; assay: two-hybrid library CCmax
T13 chain: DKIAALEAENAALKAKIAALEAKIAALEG

4H234-AA = biological target: T14, 4H234-AA; assay: two-hybrid library CCmax; details: mean of both orientations
T14 chain: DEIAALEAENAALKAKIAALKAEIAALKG

4H2354-AA = biological target: T15, 4H2354-AA; assay: two-hybrid library CCmax; details: mean of both orientations
T15 chain: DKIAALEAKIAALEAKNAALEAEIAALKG

4H2393-AA = biological target: T16, 4H2393-AA; assay: two-hybrid library CCmax; details: mean of both orientations
T16 chain: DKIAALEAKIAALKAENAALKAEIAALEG

4H2466-AA = biological target: T17, 4H2466-AA; assay: two-hybrid library CCmax; details: mean of both orientations
T17 chain: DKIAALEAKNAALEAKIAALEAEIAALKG

4H2505-AA = biological target: T18, 4H2505-AA; assay: two-hybrid library CCmax; details: mean of both orientations
T18 chain: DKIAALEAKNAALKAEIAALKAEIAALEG

4H2575-AA = biological target: T19, 4H2575-AA; assay: two-hybrid library CCmax; details: mean of both orientations
T19 chain: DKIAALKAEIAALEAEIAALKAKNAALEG

4H2617-AA = biological target: T20, 4H2617-AA; assay: two-hybrid library CCmax; details: mean of both orientations
T20 chain: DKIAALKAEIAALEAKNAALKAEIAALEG

4H2642-AA = biological target: T21, 4H2642-AA; assay: two-hybrid library CCmax; details: mean of both orientations
T21 chain: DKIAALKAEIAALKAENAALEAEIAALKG

4H2729-AA = biological target: T22, 4H2729-AA; assay: two-hybrid library CCmax; details: mean of both orientations
T22 chain: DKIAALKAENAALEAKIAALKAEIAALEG

4H2754-AA = biological target: T23, 4H2754-AA; assay: two-hybrid library CCmax; details: mean of both orientations
T23 chain: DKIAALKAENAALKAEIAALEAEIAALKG

4H2837-AA = biological target: T24, 4H2837-AA; assay: two-hybrid library CCmax; details: mean of both orientations
T24 chain: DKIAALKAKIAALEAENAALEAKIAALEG

4H2944-AA = biological target: T25, 4H2944-AA; assay: two-hybrid library CCmax; details: mean of both orientations
T25 chain: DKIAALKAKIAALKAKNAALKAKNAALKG

4H2949-AA = biological target: T26, 4H2949-AA; assay: two-hybrid library CCmax; details: mean of both orientations
T26 chain: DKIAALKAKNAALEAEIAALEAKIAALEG

4H3112-AA = biological target: T27, 4H3112-AA; assay: two-hybrid library CCmax; details: mean of both orientations
T27 chain: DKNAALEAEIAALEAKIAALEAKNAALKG

4H317-AA = biological target: T28, 4H317-AA; assay: two-hybrid library CCmax; details: mean of both orientations
T28 chain: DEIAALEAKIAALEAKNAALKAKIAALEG

4H3343-AA = biological target: T29, 4H3343-AA; assay: two-hybrid library CCmax; details: mean of both orientations
T29 chain: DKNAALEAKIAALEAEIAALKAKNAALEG

4H335-AA = biological target: T30, 4H335-AA; assay: two-hybrid library CCmax; details: mean of both orientations
T30 chain: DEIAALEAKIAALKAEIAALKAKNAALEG

4H342-AA = biological target: T31, 4H342-AA; assay: two-hybrid library CCmax; details: mean of both orientations
T31 chain: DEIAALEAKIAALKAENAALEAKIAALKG

4H3427-AA = biological target: T32, 4H3427-AA; assay: two-hybrid library CCmax; details: mean of both orientations
T32 chain: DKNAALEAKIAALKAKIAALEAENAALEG

4H3627-AA = biological target: T33, 4H3627-AA; assay: two-hybrid library CCmax; details: mean of both orientations
T33 chain: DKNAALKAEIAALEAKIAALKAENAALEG

4H3655-AA = biological target: T34, 4H3655-AA; assay: two-hybrid library CCmax; details: mean of both orientations
T34 chain: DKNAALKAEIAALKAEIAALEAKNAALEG

4H3844-AA = biological target: T35, 4H3844-AA; assay: two-hybrid library CCmax; details: mean of both orientations
T35 chain: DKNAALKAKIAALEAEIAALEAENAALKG

4H3921-AA = biological target: T36, 4H3921-AA; assay: two-hybrid library CCmax; details: mean of both orientations
T36 chain: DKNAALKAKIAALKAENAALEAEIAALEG

4H429-AA = biological target: T37, 4H429-AA; assay: two-hybrid library CCmax; details: mean of both orientations
T37 chain: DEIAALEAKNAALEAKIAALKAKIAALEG

4H454-AA = biological target: T38, 4H454-AA; assay: two-hybrid library CCmax; details: mean of both orientations
T38 chain: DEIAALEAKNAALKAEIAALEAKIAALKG

4H566-AA = biological target: T39, 4H566-AA; assay: two-hybrid library CCmax; details: mean of both orientations
T39 chain: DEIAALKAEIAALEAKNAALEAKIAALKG

4H605-AA = biological target: T40, 4H605-AA; assay: two-hybrid library CCmax; details: mean of both orientations
T40 chain: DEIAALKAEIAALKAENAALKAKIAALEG

4H678-AA = biological target: T41, 4H678-AA; assay: two-hybrid library CCmax; details: mean of both orientations
T41 chain: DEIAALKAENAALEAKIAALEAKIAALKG

4H717-AA = biological target: T42, 4H717-AA; assay: two-hybrid library CCmax; details: mean of both orientations
T42 chain: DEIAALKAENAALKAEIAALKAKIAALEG

4H780-AA = biological target: T43, 4H780-AA; assay: two-hybrid library CCmax; details: mean of both orientations
T43 chain: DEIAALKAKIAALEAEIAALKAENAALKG

4H794-AA = biological target: T44, 4H794-AA; assay: two-hybrid library CCmax; details: mean of both orientations
T44 chain: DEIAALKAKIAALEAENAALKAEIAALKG

4H881-AA = biological target: T45, 4H881-AA; assay: two-hybrid library CCmax; details: mean of both orientations
T45 chain: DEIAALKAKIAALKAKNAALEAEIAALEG

4H906-AA = biological target: T46, 4H906-AA; assay: two-hybrid library CCmax; details: mean of both orientations
T46 chain: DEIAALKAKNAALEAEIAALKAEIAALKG

4H993-AA = biological target: T47, 4H993-AA; assay: two-hybrid library CCmax; details: mean of both orientations
T47 chain: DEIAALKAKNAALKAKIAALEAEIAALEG

P6SC2R [1] = biological target: T48, P6SC2R; assay: two-hybrid library CCNG1
T48 chain: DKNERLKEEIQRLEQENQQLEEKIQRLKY

P6SC2R [2] = biological target: T48, P6SC2R; assay: two-hybrid library CCmax
Core_NINN-es_KKEE = biological target: T49, Core_NINN-es_KKEE; assay: two-hybrid library CCmax; details: mean of both orientations
T49 chain: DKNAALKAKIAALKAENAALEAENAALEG

Core_NNNI-es_KEKK = biological target: T50, Core_NNNI-es_KEKK; assay: two-hybrid library CCmax; details: mean of both orientations
T50 chain: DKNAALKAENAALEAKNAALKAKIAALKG

interaction score (4H1086-AA): -1.1 | interaction score (4H1135-AA): -0.938 | interaction score (4H1153-AA): -0.756 | interaction score (4H122-AA): -0.74 | interaction score (4H1324-AA): -0.552 | interaction score (4H1352-AA): -0.965 | interaction score (4H1552-AA): -0.495 | interaction score (4H1636-AA): -1.62 | interaction score (4H1867-AA): -1.02 | interaction score (4H2078-AA): -1.42 | interaction score (4H2165-AA): -1.24 | interaction score (4H2190-AA): 1.78 | interaction score (4H2277-AA): -2.16 | interaction score (4H234-AA): -1.17 | interaction score (4H2354-AA): -0.946 | interaction score (4H2393-AA): 1.89 | interaction score (4H2466-AA): -1.65 | interaction score (4H2505-AA): -1.28 | interaction score (4H2575-AA): 0.522 | interaction score (4H2617-AA): 0.841 | interaction score (4H2642-AA): 1.79 | interaction score (4H2729-AA): 1.34 | interaction score (4H2754-AA): 0.514 | interaction score (4H2837-AA): 2.25 | interaction score (4H2944-AA): -1.29 | interaction score (4H2949-AA): 0.739 | interaction score (4H3112-AA): -1.57 | interaction score (4H317-AA): -0.992 | interaction score (4H3343-AA): -1.72 | interaction score (4H335-AA): -1.27 | interaction score (4H342-AA): 1.88 | interaction score (4H3427-AA): -0.568 | interaction score (4H3627-AA): -0.932 | interaction score (4H3655-AA): -0.935 | interaction score (4H3844-AA): -0.082 | interaction score (4H3921-AA): 2.16 | interaction score (4H429-AA): 0.612 | interaction score (4H454-AA): -0.949 | interaction score (4H566-AA): -0.902 | interaction score (4H605-AA): -0.771 | interaction score (4H678-AA): -0.364 | interaction score (4H717-AA): -1.78 | interaction score (4H780-AA): -1.37 | interaction score (4H794-AA): -0.327 | interaction score (4H881-AA): 1.89 | interaction score (4H906-AA): -1.8 | interaction score (4H993-AA): -0.479
Binder: DENAALEAEIAALEAKNAALKAKIAALKG [4H1086-AA]

interaction score (P6SC2R [1]): 1.2 | interaction score (P6SC2R [2]): 1.06
Binder: DENSQLEEKISQLKQKNSRLKEEIQRLEY [P5SC1Q]

interaction score (Core_NINN-es_KKEE): 1.6
Binder: DENAALEAEIAALEAKNAALKAKNAALKG [Core_NINN-es_EEKK]

interaction score (Core_NNNI-es_KEKK): 2.11
Binder: DENAALEAKNAALKAENAALEAEIAALEG [Core_NNNI-es_EKEE]
